Experimental data from US20230357429A1 (JANUX THERAPEUTICS, published 2023).
Where two headings read alike, the source gives them in different places. Where no end group is shown, it is not given here.

Tests used:
Experiment in all cases: competition ELISA, peptide vs Fab binding to captured biotin-TROP2
[1] = target: T1, TBD-1 wt
T1 construct: Fab; the heavy chain entry is VH-CH1; also called wild-type anti-TROP2 Fab (hRS7); TROP2 Fab

[2] = target: T2, TBD-6 (LC I93A)
T2 construct: Fab; also called LC I93A mutant

[3] = target: T3, TBD-11 (HC R98A)
T3 construct: Fab; also called HC R98A mutant

[4] = target: T4, TBD-17 (HC S104A)
T4 construct: Fab; also called HC S104A mutant

[5] = target: T5, TBD-21 (HC F108A)
T5 construct: Fab; also called HC F108A mutant

[6] = target: T6, TBD-22 (HC D109A)
T6 construct: Fab; also called HC D109A mutant

[7] = target: T1, TBD-1 wt; remark: listed apart in the source
[8] = target: T2, TBD-6 (LC I93A); remark: listed apart in the source
[9] = target: T3, TBD-11 (HC R98A); remark: listed apart in the source
[10] = target: T4, TBD-17 (HC S104A); remark: listed apart in the source
[11] = target: T5, TBD-21 (HC F108A); remark: listed apart in the source
[12] = target: T6, TBD-22 (HC D109A); remark: listed apart in the source

B1: Peptide-17 (peptide)
peptide: IDFCLLYDWPICGR
modifications: cysteine pairing not given here; also: biotinylated (site not given here)
IC50 [1]: 0.43 µM | IC50 [2]: 0.76 µM | IC50 [3]: 1.95 µM | IC50 [4]: 2.07 µM | IC50 [5]: 2.94 µM | IC50 [6]: 0.07 µM

B2: Peptide-18 (peptide)
peptide: MDFCQIYDWPICRL
modifications: cysteine pairing not given here; also: biotinylated (site not given here)
IC50 [1]: 1.27 µM | IC50 [2]: 6.11 µM | IC50 [3]: 3.96 µM | IC50 [4]: 7.08 µM | IC50 [5]: 7.56 µM | IC50 [6]: 0.35 µM

B3: Peptide-32 (peptide)
peptide: PDFCYMYGWPICDS
modifications: cysteine pairing not given here; also: biotinylated, site not given here
IC50 [7]: 4.94 µM | IC50 [8]: 3.29 µM | IC50 [9]: 9.93 µM | IC50 [10]: 9.44 µM | IC50 [11]: 13.2 µM | IC50 [12]: 0.33 µM

B4: Peptide-13 (peptide)
peptide: VDFCELYRWPICNS
modifications: cysteine pairing not given here; also: biotinylated (site not given here)
IC50 [1]: 1.01 µM | IC50 [2]: 0.97 µM | IC50 [3]: 2.68 µM | IC50 [4]: 2.99 µM | IC50 [5]: 3.2 µM | IC50 [6]: 0.2 µM

B5: Peptide-62 (peptide)
peptide: IDFCAVYKWPVCQV
modifications: cysteine pairing not given here; also: biotinylated, site not given here
IC50 [7]: 1.47 µM | IC50 [8]: 0.55 µM | IC50 [9]: 4.87 µM | IC50 [10]: 1.42 µM | IC50 [11]: 3.01 µM | IC50 [12]: 0.08 µM

B6: Peptide-37 (peptide)
peptide: VDFCYLYNWPVCSK
modifications: cysteine pairing not given here; also: biotinylated, site not given here
IC50 [7]: 6.28 µM | IC50 [8]: 2.6 µM | IC50 [9]: 16.6 µM | IC50 [10]: 4.08 µM | IC50 [11]: 15.5 µM | IC50 [12]: 0.37 µM

B7: Peptide-33 (peptide)
peptide: PDFCYMYNWPVCVT
modifications: cysteine pairing not given here; also: biotinylated, site not given here
IC50 [7]: 5.6 µM | IC50 [8]: 2.16 µM | IC50 [9]: 18 µM | IC50 [10]: 6.01 µM | IC50 [11]: 15.7 µM | IC50 [12]: 0.33 µM

B8: Peptide-5 (peptide)
peptide: VDFCKLYNWPVCQT
modifications: cysteine pairing not given here; also: biotinylated, site not given here
IC50 [1]: 1.59 µM | IC50 [2]: 1.05 µM | IC50 [3]: 7.23 µM | IC50 [4]: 1.79 µM | IC50 [5]: 7.16 µM | IC50 [6]: 0.1 µM

B9: Peptide-12 (peptide)
peptide: PDFCAVYRWPICYQ
modifications: cysteine pairing not given here; also: biotinylated (site not given here)
IC50 [1]: 0.46 µM | IC50 [2]: 1.46 µM | IC50 [3]: 0.85 µM | IC50 [4]: 2.23 µM | IC50 [5]: 2.24 µM | IC50 [6]: 0.07 µM

B10: Peptide-35 (peptide)
peptide: EDFCYWYQWPICSD
modifications: cysteine pairing not given here; also: biotinylated, site not given here
IC50 [7]: 4.4 µM | IC50 [8]: 3.2 µM | IC50 [9]: 21.9 µM | IC50 [10]: 9.4 µM | IC50 [11]: 19.2 µM | IC50 [12]: 0.87 µM

B11: Peptide-43 (peptide)
peptide: VDFCALYHWPICYQ
modifications: cysteine pairing not given here; also: biotinylated, site not given here
IC50 [7]: 0.3 µM | IC50 [8]: 0.44 µM | IC50 [9]: 0.77 µM | IC50 [10]: 0.56 µM | IC50 [11]: 0.69 µM | IC50 [12]: 0.05 µM

B12: Peptide-36 (peptide)
peptide: VDFCYQYGWPICSR
modifications: cysteine pairing not given here; also: biotinylated, site not given here
IC50 [7]: 5.11 µM | IC50 [8]: 3.8 µM | IC50 [9]: 19.9 µM | IC50 [10]: 14.8 µM | IC50 [11]: 19.9 µM | IC50 [12]: 1.72 µM

B13: Peptide-2 (peptide)
peptide: IDFCAVYKWPVCQV
modifications: cysteine pairing not given here; also: biotinylated (site not given here)
IC50 [1]: 2.23 µM | IC50 [2]: 1.1 µM | IC50 [3]: 5.85 µM | IC50 [4]: 2.08 µM | IC50 [5]: 5.88 µM | IC50 [6]: 0.16 µM

B14: Peptide-4 (peptide)
peptide: VDFCKIYAWPICGS
modifications: cysteine pairing not given here; also: biotinylated, site not given here
IC50 [1]: 0.46 µM | IC50 [2]: 0.4 µM | IC50 [3]: 3.24 µM | IC50 [4]: 2.04 µM | IC50 [5]: 3.3 µM | IC50 [6]: 0.13 µM

B15: Peptide-1 (peptide)
peptide: IDFCAMYQWPICDT
modifications: cysteine pairing not given here; also: biotinylated (site not given here)
IC50 [1]: 0.78 µM | IC50 [2]: 0.35 µM | IC50 [3]: 2.49 µM | IC50 [4]: 1.02 µM | IC50 [5]: 2.89 µM | IC50 [6]: 0.07 µM

B16: Peptide-42 (peptide)
peptide: IDFCAMYHWPICDT
modifications: cysteine pairing not given here; also: biotinylated, site not given here
IC50 [7]: 0.3 µM | IC50 [8]: 0.22 µM | IC50 [9]: 1.21 µM | IC50 [10]: 0.59 µM | IC50 [11]: 0.94 µM | IC50 [12]: 0.06 µM

B17: Peptide-29 (peptide)
peptide: SYLVCVKNVYCWTA
modifications: cysteine pairing not given here; also: biotinylated, site not given here
IC50 [1]: 0.92 µM | IC50 [2]: 0.8 µM | IC50 [3]: 9.17 µM | IC50 [4]: 1.11 µM | IC50 [5]: 1.49 µM | IC50 [6]: 33.6 µM

B18: Peptide-14 (peptide)
peptide: LDFCKIYDWPICHL
modifications: cysteine pairing not given here; also: biotinylated (site not given here)
IC50 [1]: 2.19 µM | IC50 [2]: 1.54 µM | IC50 [3]: 3.42 µM | IC50 [4]: 5.72 µM | IC50 [5]: 6.92 µM | IC50 [6]: 0.19 µM

B19: Peptide-10 (peptide)
peptide: IDFCAIYQWPVCRS
modifications: cysteine pairing not given here; also: biotinylated (site not given here)
IC50 [1]: 1.22 µM | IC50 [2]: 0.62 µM | IC50 [3]: 4.04 µM | IC50 [4]: 1.52 µM | IC50 [5]: 2.9 µM | IC50 [6]: 0.06 µM

B20: Peptide-6 (peptide)
peptide: IDFCLIYNWPVCDT
modifications: cysteine pairing not given here; also: biotinylated, site not given here
IC50 [2]: 1.86 µM | IC50 [3]: 8.84 µM | IC50 [4]: 3.09 µM | IC50 [5]: 7.94 µM | IC50 [6]: 0.09 µM
